The results in this text go back to the supplement of paper PMC9112550, “Optimization of the antimicrobial peptide Bac7 by deep mutational scanning” (BMC Biology, 2022).
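Note: peptides expressed intracellularly from a pBAD plasmid library in pooled LB shake-flask culture, induced with 0.3% L-arabinose, DNA abundance read by NGS, three biological replicates, DESeq2 with apeglm shrinkage.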

This data set has as its system Escherichia coli TOP10. Kind of data set: shrunken log2 fold change of peptide-encoding DNA abundance (4.5 h post-induction vs induction); higher = less antimicrobial activity (less host growth inhibition). The settings on record: time post-induction: 4.5 h; library: site-saturation at positions 5, 18, 19, 20.
Turning to RRIRKRPPRLPRPRPRPHASPRP, the “shrunken log2 fold change” value is 0.073.
With RRIRYRPPRLPRPRPRPWFKPRP the figure was -0.12; with RRIRYRPPRLPRPRPRPDCSPRP, -0.315; with RRIRRRPPRLPRPRPRPITGPRP, 0.111.
RRIRNRPPRLPRPRPRPGNRPRP: the “shrunken log2 fold change” value was -0.0775.
In the case of RRIRGRPPRLPRPRPRPVAQPRP, the “shrunken log2 fold change” value is 0.719.
For RRIRLRPPRLPRPRPRPWWLPRP, the “shrunken log2 fold change” value is -0.0334.
Under RRIRRRPPRLPRPRPRPPAIPRP stands 1.03.
For RRIRVRPPRLPRPRPRPIMDPRP, the “shrunken log2 fold change” value was -0.151.
Turning to RRIRCRPPRLPRPRPRPFHVPRP, the “shrunken log2 fold change” value was -0.893.
For RRIRTRPPRLPRPRPRPAPCPRP, the “shrunken log2 fold change” value came out at 0.18.
RRIRCRPPRLPRPRPRPLFTPRP: the “shrunken log2 fold change” value is -0.42.
Take RRIRVRPPRLPRPRPRPVPVPRP: the “shrunken log2 fold change” value was determined as 0.0573.
With RRIRTRPPRLPRPRPRPYDLPRP the figure was -0.14; with RRIRTRPPRLPRPRPRPYRCPRP, -0.123; with RRIRCRPPRLPRPRPRPQCSPRP, -0.0788.
In the case of RRIRNRPPRLPRPRPRPDPFPRP, the “shrunken log2 fold change” value was -0.582.
On to RRIRARPPRLPRPRPRPQVEPRP, for which the “shrunken log2 fold change” value was 0.399.
Under RRIRARPPRLPRPRPRPPYEPRP stands 0.194.
As for RRIRWRPPRLPRPRPRPSPHPRP, the “shrunken log2 fold change” value is -0.0688.
In the case of RRIRYRPPRLPRPRPRPQQVPRP, the “shrunken log2 fold change” value was -0.0456.
Turning to RRIRSRPPRLPRPRPRPNQQPRP, the “shrunken log2 fold change” value amounted to 0.121.
Regarding RRIRPRPPRLPRPRPRPNLIPRP, the “shrunken log2 fold change” value was -0.203.
In the case of RRIRNRPPRLPRPRPRPGAAPRP, the “shrunken log2 fold change” value came to 0.417.
Take RRIRARPPRLPRPRPRPKATPRP: the “shrunken log2 fold change” value was 0.347.
Turning to RRIRWRPPRLPRPRPRPAPYPRP, the “shrunken log2 fold change” value was -0.0336.
Under RRIRRRPPRLPRPRPRPGCWPRP stands 0.561.
Regarding RRIRMRPPRLPRPRPRPQLGPRP, the “shrunken log2 fold change” value is -0.0543.
With RRIRMRPPRLPRPRPRPMVLPRP the figure was -0.0251; with RRIRCRPPRLPRPRPRPHPWPRP, -0.158.
With RRIRARPPRLPRPRPRPPRLPRP, the “shrunken log2 fold change” value was 0.829.
In the case of RRIRKRPPRLPRPRPRPAGEPRP, the “shrunken log2 fold change” value worked out at 0.0321.
As for RRIRYRPPRLPRPRPRPHYIPRP, the “shrunken log2 fold change” value is -0.318.
With RRIRGRPPRLPRPRPRPNDYPRP, the “shrunken log2 fold change” value was -0.0119.
In the case of RRIRPRPPRLPRPRPRPLADPRP, the “shrunken log2 fold change” value is 0.188.
Turning to RRIRGRPPRLPRPRPRPQMEPRP, the “shrunken log2 fold change” value turned out to be 0.473.
With RRIRFRPPRLPRPRPRPSCHPRP, the “shrunken log2 fold change” value is -0.495.
RRIRERPPRLPRPRPRPPPLPRP: the “shrunken log2 fold change” value stood at 0.222.
Under RRIRTRPPRLPRPRPRPKTCPRP stands 0.012.
Turning to RRIRSRPPRLPRPRPRPPCFPRP, the “shrunken log2 fold change” value was -0.0133.
On to RRIRTRPPRLPRPRPRPHDTPRP, for which the “shrunken log2 fold change” value is -0.213.
Under RRIRERPPRLPRPRPRPPPVPRP stands 0.261; under RRIRERPPRLPRPRPRPTICPRP, -0.342.
On to RRIRMRPPRLPRPRPRPASPPRP, for which the “shrunken log2 fold change” value turned out to be 0.14.
Consider RRIRWRPPRLPRPRPRPVIFPRP, for which the “shrunken log2 fold change” value is 1.32.
Regarding RRIRDRPPRLPRPRPRPYHKPRP, the “shrunken log2 fold change” value was -0.0174.
Consider RRIRKRPPRLPRPRPRPECIPRP, for which the “shrunken log2 fold change” value is 0.0177.
With RRIRKRPPRLPRPRPRPASKPRP, the “shrunken log2 fold change” value is -0.25.
RRIRCRPPRLPRPRPRPARYPRP: the “shrunken log2 fold change” value was -0.438.
Under RRIRERPPRLPRPRPRPATEPRP stands -0.155; under RRIRCRPPRLPRPRPRPALYPRP, -0.0755.
For the sequence RRIRLRPPRLPRPRPRPPDEPRP, the “shrunken log2 fold change” value worked out at 0.264.
Under RRIRGRPPRLPRPRPRPSTDPRP stands 0.899; under RRIRYRPPRLPRPRPRPAIRPRP, -0.0189.
With RRIRQRPPRLPRPRPRPVMAPRP, the “shrunken log2 fold change” value was -0.38.
In the case of RRIRNRPPRLPRPRPRPKAYPRP, the “shrunken log2 fold change” value worked out at 0.0121.
With RRIRNRPPRLPRPRPRPGANPRP the figure was -0.151; with RRIRMRPPRLPRPRPRPAQGPRP, 3.7.
Consider RRIRGRPPRLPRPRPRPNKLPRP, for which the “shrunken log2 fold change” value is -0.096.
With RRIRERPPRLPRPRPRPNVWPRP, the “shrunken log2 fold change” value stood at 0.133.
In the case of RRIRMRPPRLPRPRPRPDRSPRP, the “shrunken log2 fold change” value is -0.178.
Regarding RRIRHRPPRLPRPRPRPHFSPRP, the “shrunken log2 fold change” value was found to be 0.0854.
Regarding RRIRHRPPRLPRPRPRPKDYPRP, the “shrunken log2 fold change” value came out at 0.0577.
Regarding RRIRDRPPRLPRPRPRPTNFPRP, the “shrunken log2 fold change” value was -0.208.
Consider RRIRPRPPRLPRPRPRPNYSPRP, for which the “shrunken log2 fold change” value was -0.39.
With RRIRDRPPRLPRPRPRPTFWPRP, the “shrunken log2 fold change” value worked out at 0.588.
With RRIRQRPPRLPRPRPRPIDEPRP the figure was 3.38.
Consider RRIRLRPPRLPRPRPRPYRKPRP, for which the “shrunken log2 fold change” value is -0.262.
Take RRIRSRPPRLPRPRPRPPLKPRP: the “shrunken log2 fold change” value is 0.0467.
As for RRIRPRPPRLPRPRPRPKSFPRP, the “shrunken log2 fold change” value was -0.0474.
On to RRIRHRPPRLPRPRPRPIYPPRP, for which the “shrunken log2 fold change” value was -0.158.
As for RRIRGRPPRLPRPRPRPYHKPRP, the “shrunken log2 fold change” value was -0.331.
With RRIRVRPPRLPRPRPRPGQEPRP, the “shrunken log2 fold change” value was 0.0329.
On to RRIRHRPPRLPRPRPRPDKSPRP, for which the “shrunken log2 fold change” value was -0.276.
In the case of RRIRCRPPRLPRPRPRPDLEPRP, the “shrunken log2 fold change” value was -0.26.
As to RRIRLRPPRLPRPRPRPEGMPRP, the “shrunken log2 fold change” value came out at 0.194.
Under RRIRIRPPRLPRPRPRPKWVPRP stands -0.098.
With RRIRQRPPRLPRPRPRPMHIPRP the figure was -0.377.
On to RRIRMRPPRLPRPRPRPGENPRP, for which the “shrunken log2 fold change” value was found to be 0.00897.
Under RRIRERPPRLPRPRPRPDESPRP stands -0.304; under RRIRMRPPRLPRPRPRPLNSPRP, -0.0401; under RRIRHRPPRLPRPRPRPTHNPRP, -0.211.
With RRIRERPPRLPRPRPRPWVCPRP, the “shrunken log2 fold change” value was found to be 0.0297.
For the sequence RRIRERPPRLPRPRPRPRLAPRP, the “shrunken log2 fold change” value came out at 0.269.
As for RRIRLRPPRLPRPRPRPRFIPRP, the “shrunken log2 fold change” value is -0.243.
For RRIRPRPPRLPRPRPRPLNLPRP, the “shrunken log2 fold change” value worked out at 0.177.
RRIRPRPPRLPRPRPRPGNTPRP: the “shrunken log2 fold change” value was -0.241.
As to RRIRERPPRLPRPRPRPRVQPRP, the “shrunken log2 fold change” value was 0.00573.
As to RRIRLRPPRLPRPRPRPGGGPRP, the “shrunken log2 fold change” value stood at 0.849.
Consider RRIRQRPPRLPRPRPRPIFCPRP, for which the “shrunken log2 fold change” value amounted to 0.276.
With RRIRFRPPRLPRPRPRPITVPRP the figure was -0.177.
Consider RRIRTRPPRLPRPRPRPCKMPRP, for which the “shrunken log2 fold change” value is -0.47.
Turning to RRIRSRPPRLPRPRPRPVDRPRP, the “shrunken log2 fold change” value was 0.0715.
Take RRIRMRPPRLPRPRPRPDEHPRP: the “shrunken log2 fold change” value was 2.21.
Turning to RRIRCRPPRLPRPRPRPECLPRP, the “shrunken log2 fold change” value was -0.109.
RRIRGRPPRLPRPRPRPSQLPRP: the “shrunken log2 fold change” value was determined as 0.461.
Under RRIRVRPPRLPRPRPRPRRVPRP stands 0.256; under RRIRWRPPRLPRPRPRPEKFPRP, 0.0209; under RRIRHRPPRLPRPRPRPAHMPRP, -0.0835.
Under RRIRNRPPRLPRPRPRPTEDPRP stands -0.187; under RRIRHRPPRLPRPRPRPTVQPRP, 0.118; under RRIRIRPPRLPRPRPRPFTRPRP, 0.114.
Take RRIRVRPPRLPRPRPRPPPKPRP: the “shrunken log2 fold change” value came out at 1.11.
As for RRIRLRPPRLPRPRPRPQFAPRP, the “shrunken log2 fold change” value stood at 0.0774.
Turning to RRIRCRPPRLPRPRPRPDMNPRP, the “shrunken log2 fold change” value was -0.312.
With RRIRLRPPRLPRPRPRPNFFPRP, the “shrunken log2 fold change” value was found to be 0.247.
Turning to RRIRNRPPRLPRPRPRPKDQPRP, the “shrunken log2 fold change” value is -0.108.
With RRIRPRPPRLPRPRPRPKCAPRP, the “shrunken log2 fold change” value is 0.0543.
Consider RRIRWRPPRLPRPRPRPACTPRP, for which the “shrunken log2 fold change” value is 0.334.
For RRIRERPPRLPRPRPRPAVNPRP, the “shrunken log2 fold change” value was -0.00945.
As for RRIRIRPPRLPRPRPRPWRYPRP, the “shrunken log2 fold change” value was -0.0701.
With RRIRGRPPRLPRPRPRPNTMPRP, the “shrunken log2 fold change” value is 0.0452.
As to RRIRYRPPRLPRPRPRPHQLPRP, the “shrunken log2 fold change” value is -0.191.
As for RRIRRRPPRLPRPRPRPMQRPRP, the “shrunken log2 fold change” value is 0.24.
With RRIRRRPPRLPRPRPRPVEAPRP the figure was 0.118; with RRIRWRPPRLPRPRPRPTYHPRP, -0.0794; with RRIRARPPRLPRPRPRPMDDPRP, 0.197.
With RRIRARPPRLPRPRPRPVQLPRP the figure was 0.101; with RRIRGRPPRLPRPRPRPRWIPRP, 0.152; with RRIRCRPPRLPRPRPRPGTMPRP, 0.0719.
With RRIRFRPPRLPRPRPRPILTPRP the figure was -0.689.
For the sequence RRIRGRPPRLPRPRPRPEPEPRP, the “shrunken log2 fold change” value was determined as 1.51.
For RRIRVRPPRLPRPRPRPNSPPRP, the “shrunken log2 fold change” value was -0.271.
Under RRIRWRPPRLPRPRPRPSHTPRP stands 0.0847; under RRIRGRPPRLPRPRPRPIMRPRP, 0.818.
